We go through one substance from patent US20160355590A1.

In this test the target is HLA-DR on Raji cells, the Lym-1 antigen (HLA-Dr10) (human). Kind of test: cell-based or functional assay.

Lym-1 CAR (on primary human T-cells) had a lysis of target Raji cells (LDH cytotoxicity assay) of 22%.
